Source: publication PMC4857615

Test system: Nc1ncnc2c1ncn2[C@@H]1O[C@H](COP(=O)(O)OP(=O)(O)OP(=O)(O)O)[C@@H](O)[C@H]1O
Experiment: purified protein
Details: co-substrate acetate, MgCl2 6.6 mM, HEPES 84 mM, 40 °C

EutP (Salmonella enterica subsp. enterica serovar Typhimurium str. LT2)
Km: 0.5 ± 0.2 mM | kcat: 657 s⁻¹ | kcat/Km: 1.31e+06 ± 377000 M⁻¹ s⁻¹

EutQ (Salmonella enterica subsp. enterica serovar Typhimurium str. LT2)
Km: 0.5 ± 0.1 mM | kcat: 434 s⁻¹ | kcat/Km: 868000 ± 145000 M⁻¹ s⁻¹
